According to patent US20240293499A1 (SUNNYBROOK RESEARCH INSTITUTE, published 2024):

Columns and labels:
[1] = molecular target: T1, murine VISTA (mVISTA), recombinant; form not stated (mouse, UniProt Q9D659 33-191, limits assumed); experiment: SPR single-cycle kinetics (FIG. 8)
T1 construct: The SPR method names only hVISTA-Fc as analyte for the nanobodies; also called mouse VISTA
T1 sequence (looked up): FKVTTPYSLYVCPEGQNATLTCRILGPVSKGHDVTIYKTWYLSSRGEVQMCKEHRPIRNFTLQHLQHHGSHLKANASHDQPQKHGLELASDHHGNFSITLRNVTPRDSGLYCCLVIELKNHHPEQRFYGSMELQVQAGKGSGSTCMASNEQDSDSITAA

[2] = molecular target: T2, human VISTA on primary human immune cells (CD14+CD16- classical monocytes of PBMCs) (human, UniProt Q9H7M9 33-311); experiment: flow cytometry on human PBMC, gate CD14+CD16- monocytes, ΔMFI against control, 5 donors
T2 construct: whole, on cells; Native protein on donor cells; also called hVISTA
T2 sequence (looked up): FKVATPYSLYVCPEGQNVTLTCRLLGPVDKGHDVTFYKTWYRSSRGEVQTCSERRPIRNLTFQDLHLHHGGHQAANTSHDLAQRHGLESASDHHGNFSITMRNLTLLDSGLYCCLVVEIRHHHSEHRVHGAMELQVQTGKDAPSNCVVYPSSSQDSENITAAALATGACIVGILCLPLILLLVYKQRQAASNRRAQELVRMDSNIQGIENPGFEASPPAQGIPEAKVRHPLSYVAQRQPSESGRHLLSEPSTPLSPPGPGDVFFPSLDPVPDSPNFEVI
Protocol: PBMCs had their Fc receptors blocked with Human TruStain FcX (422301; BioLegend) then incubated with 2.5 μg of mAb, mouse IgG1 (401408; BioLegend), or rat IgG2a (400565; BioLegend) or 15 μg Nb for 1 hour at 4° C. After washing with PBS, the PBMCs were incubated with secondary antibodies (1 μL; FITC anti-mouse IgG1, FITC anti-HA, or FITC anti-rat IgG2a; 406605, 901507, or MRG2a-83; BioLegend) or control FITC anti-VISTA antibodies (clone B7H5DS8; 11-1088-42; eBioscience) for 40 minutes at 4° C. A staining cocktail consisting of PE/Cy5 anti-CD11b (101210; BioLegend), APC/Cy7 anti-CD14 (325620; BioLegend), Alexa Flour 700 anti-CD16 (302026; BioLegend), PE/Cy7 anti-CD4 (317414; BioLegend), and Alexa Flour 647 anti-CD8 (301022; BioLegend) was then added to the PBMCs and incubated for 20 minutes at 4° C. Finally, the PBMCs were washed and resuspended in 3 μM DAPI (D1306; Thermo Fisher Scientific) and cytometric profiles recorded using a BD LSR II flow cytometer (BD) maintained by The Centre for Flow Cytometry & Scanning Microscopy (CCSM) at Sunnybrook Research Institute (SRI; Sunnybrook Health Sciences Centre, Toronto, ON, Canada). The same protocol was performed on murine splenocytes to measure the binding of rat anti-hmVISTA mAbs to murine immune cells.

[3] = molecular target: T3, hVISTA-Fc (produced in house) (human, UniProt Q9H7M9 33-194, limits assumed); experiment: SPR (BIAcore T200), single-cycle kinetics, Nb captured on anti-His chip, hVISTA-Fc injected at 1.9, 3.8, 7.5, 15, 30 nM, 1:1 fit
T3 construct: Analyte in the SPR of the nanobodies; not shown: Fc
T3 sequence (looked up): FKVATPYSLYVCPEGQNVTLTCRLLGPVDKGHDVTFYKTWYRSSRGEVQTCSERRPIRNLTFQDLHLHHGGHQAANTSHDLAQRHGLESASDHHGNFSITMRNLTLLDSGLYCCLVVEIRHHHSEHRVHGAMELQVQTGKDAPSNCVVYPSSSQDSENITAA
Protocol: Binding kinetics of mAbs and Nbs to hVISTA and mVISTA were obtained by surface plasmon resonance (SPR) using a BIAcore T200 (Cytiva) and HBS running buffer (20 mM of HEPES pH 7.4, 150 mM NaCl, 0.005% Tween-20, 3.4 mM EDTA). Briefly, anti-histidine antibodies were immobilized on a CM5 chip (29149604; Cytiva) using the His capture kit (28995056; Cytiva) following manufacture's protocol. For mAbs, VISTA was captured by flowing […] of hVISTA-COMP-his or mVISTA-COMP-his at a flow rate of 30 μL/min. Sensorgrams were collected using single-cycle kinetics covering five mAb concentrations (1:2 serial dilutions). For Nbs, solutions of each nanobody ([…]) were flown over an anti-histidine-coated chip. Five concentrations (1:2 serial dilutions) of hVISTA-Fc (produced in house) were then injected at a flow rate of 30 μL/min. KD, Kₒₙ, and Koff were calculated by analyzing the sensorgrams with a 1:1 Langmuir binding model²³ after subtracting reference sensorgrams.

B1: anti-hVISTA nanobody hVISTANb7 (VHH)
VHH: QVQLQESGGGLVYPGGSLRLSCTASGFAFTNAYMNWVRQAPGKGAEWVSGITRDSNRTSYADSVKGRFTISRDNAKNTLYLQMDSLKSDDTALYYCNAEPSGWWLDDDYWGQGTQVTVSS
notes: Llama nanobody made in E. coli WK6; not shown: HA tag and His tag (pMECS vector; purified on a His-Trap column, detected with anti-HA)
[1]
  binding result: no binding
[2]
  binding result: binds
[3]
  Kd: 7.5 nM
